Data from US20090166224A1 (published 2009).

Tests used:
Test in all cases: human serum on Con A/WGA/Jacalin column, lectin-specific displacer fraction, LC-MS/MS; grade = SEQUEST rank group (+ = ranks 1-5, ++++ = 16-20)
[1] = molecular target: T1, ALPHA-2-MACROGLOBULIN (human, UniProt P01023 24-1474)
T1 construct: also called A2MG; α2-macroglobulin
T1 sequence (looked up): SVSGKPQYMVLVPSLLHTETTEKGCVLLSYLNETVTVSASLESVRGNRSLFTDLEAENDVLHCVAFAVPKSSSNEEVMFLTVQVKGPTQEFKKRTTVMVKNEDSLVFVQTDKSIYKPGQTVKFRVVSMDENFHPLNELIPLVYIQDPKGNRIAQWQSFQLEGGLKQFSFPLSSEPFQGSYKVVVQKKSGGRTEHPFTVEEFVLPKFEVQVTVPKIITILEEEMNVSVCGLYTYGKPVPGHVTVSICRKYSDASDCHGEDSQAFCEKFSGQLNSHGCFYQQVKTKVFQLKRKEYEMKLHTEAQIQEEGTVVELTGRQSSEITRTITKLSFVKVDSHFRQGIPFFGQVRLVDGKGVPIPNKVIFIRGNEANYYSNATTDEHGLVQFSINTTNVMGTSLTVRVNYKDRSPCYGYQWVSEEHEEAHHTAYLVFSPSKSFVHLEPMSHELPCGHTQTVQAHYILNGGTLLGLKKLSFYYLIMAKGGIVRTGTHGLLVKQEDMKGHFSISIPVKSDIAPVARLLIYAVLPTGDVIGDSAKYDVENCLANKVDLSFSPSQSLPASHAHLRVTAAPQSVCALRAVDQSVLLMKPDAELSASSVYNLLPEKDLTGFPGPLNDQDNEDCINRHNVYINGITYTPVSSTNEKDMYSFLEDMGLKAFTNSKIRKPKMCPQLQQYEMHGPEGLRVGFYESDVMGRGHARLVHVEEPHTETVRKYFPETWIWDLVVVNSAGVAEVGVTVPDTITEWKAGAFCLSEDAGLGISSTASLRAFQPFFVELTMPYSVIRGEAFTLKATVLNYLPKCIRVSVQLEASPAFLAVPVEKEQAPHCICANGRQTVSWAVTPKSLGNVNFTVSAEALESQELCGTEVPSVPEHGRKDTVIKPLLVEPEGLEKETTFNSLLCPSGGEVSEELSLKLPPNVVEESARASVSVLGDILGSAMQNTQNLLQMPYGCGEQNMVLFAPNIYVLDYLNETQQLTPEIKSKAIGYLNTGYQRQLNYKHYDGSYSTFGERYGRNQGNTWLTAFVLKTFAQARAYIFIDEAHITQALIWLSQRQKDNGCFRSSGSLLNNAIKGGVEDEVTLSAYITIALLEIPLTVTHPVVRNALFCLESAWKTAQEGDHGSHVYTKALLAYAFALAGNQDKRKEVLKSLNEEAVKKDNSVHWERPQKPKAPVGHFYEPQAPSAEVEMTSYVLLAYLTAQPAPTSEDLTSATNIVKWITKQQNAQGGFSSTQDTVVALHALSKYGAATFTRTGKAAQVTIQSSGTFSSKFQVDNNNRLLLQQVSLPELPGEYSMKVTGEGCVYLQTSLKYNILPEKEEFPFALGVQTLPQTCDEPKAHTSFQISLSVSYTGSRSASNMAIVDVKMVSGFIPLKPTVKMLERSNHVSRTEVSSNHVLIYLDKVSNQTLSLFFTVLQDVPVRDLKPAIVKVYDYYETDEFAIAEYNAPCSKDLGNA

[2] = molecular target: T2, VITRONECTIN (human, UniProt P04004 20-478)
T2 construct: from human serum; also called VTNC

[3] = molecular target: T3, IG MU CHAIN C REGION (human, UniProt P01871-1 1-453)
T3 construct: domain: C region; Polyclonal serum IgM, identified through its constant region; variable regions and light chains not defined
T3 heavy (looked up): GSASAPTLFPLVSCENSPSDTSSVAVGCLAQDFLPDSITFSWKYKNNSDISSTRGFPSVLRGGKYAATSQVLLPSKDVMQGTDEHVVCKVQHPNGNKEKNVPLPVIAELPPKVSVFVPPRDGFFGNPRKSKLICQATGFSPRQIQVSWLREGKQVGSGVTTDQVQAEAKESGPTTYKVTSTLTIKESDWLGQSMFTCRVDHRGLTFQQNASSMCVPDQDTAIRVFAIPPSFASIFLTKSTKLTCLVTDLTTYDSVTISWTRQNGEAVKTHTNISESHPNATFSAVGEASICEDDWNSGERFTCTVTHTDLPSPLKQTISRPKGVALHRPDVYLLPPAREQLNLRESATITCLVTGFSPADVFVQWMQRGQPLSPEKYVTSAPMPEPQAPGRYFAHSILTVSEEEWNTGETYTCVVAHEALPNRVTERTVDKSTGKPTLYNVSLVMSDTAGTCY

[4] = molecular target: T4, PLASMA PROTEASE C1 INHIBITOR (human, UniProt P05155 23-500)
T4 construct: from human serum; also called IC1
T4 sequence (looked up): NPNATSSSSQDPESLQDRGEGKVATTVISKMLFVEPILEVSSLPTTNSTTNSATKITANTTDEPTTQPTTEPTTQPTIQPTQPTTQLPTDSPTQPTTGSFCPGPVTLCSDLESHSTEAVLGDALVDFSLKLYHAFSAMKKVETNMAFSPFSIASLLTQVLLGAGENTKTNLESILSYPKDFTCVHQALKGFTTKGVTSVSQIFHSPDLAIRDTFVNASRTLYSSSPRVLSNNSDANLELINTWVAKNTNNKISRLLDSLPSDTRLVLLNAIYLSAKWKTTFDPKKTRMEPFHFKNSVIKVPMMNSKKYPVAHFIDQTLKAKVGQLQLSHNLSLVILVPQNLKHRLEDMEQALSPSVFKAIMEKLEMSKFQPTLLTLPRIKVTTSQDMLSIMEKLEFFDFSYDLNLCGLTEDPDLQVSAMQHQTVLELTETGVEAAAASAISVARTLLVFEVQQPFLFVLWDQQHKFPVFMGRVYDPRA

T2 sequence (P04004 20-478 limits assumed): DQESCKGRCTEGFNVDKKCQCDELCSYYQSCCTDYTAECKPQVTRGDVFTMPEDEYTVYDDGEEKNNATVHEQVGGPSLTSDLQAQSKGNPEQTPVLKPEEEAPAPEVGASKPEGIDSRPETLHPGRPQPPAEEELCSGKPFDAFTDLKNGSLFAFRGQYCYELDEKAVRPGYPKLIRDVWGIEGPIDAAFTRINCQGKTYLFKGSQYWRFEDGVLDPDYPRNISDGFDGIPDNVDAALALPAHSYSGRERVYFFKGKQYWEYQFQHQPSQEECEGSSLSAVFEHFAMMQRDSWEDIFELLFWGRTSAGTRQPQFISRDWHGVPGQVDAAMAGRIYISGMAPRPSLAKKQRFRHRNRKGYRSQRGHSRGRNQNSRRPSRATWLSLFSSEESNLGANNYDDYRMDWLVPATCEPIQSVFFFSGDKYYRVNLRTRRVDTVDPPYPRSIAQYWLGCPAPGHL

B1: wheat germ agglutinin (WGA), agarose-bound (other, UniProt P10968 27-197, looked up)
chain: QRCGEQGSNMECPNNLCCSQYGYCGMGGDYCGKGCQNGACWTSKRCGSQAGGATCTNNQCCSQYGYCGFGAEYCGAGCQGGPCRADIKCGSQAGGKLCPNNLCCSQWGFCGLGSEFCGGGCQSGACSTDKPCGKDAGGRVCTNNYCCSKWGSCGIGPGYCGAGCQSGGCDG
modifications: immobilized on agarose
notes: Lectin; released with N-acetyl-glucosamine; Coated on the plate in the lectin ELISA
With B1 as the binder, how does the “SEQUEST ranking (relative abundance in the WGA displacement fraction)” value [1] read?
Its value is 1 to 5 rank.

What about the “SEQUEST ranking (relative abundance in the WGA displacement fraction)” value [2] of the same binder?
Its value is 6 to 10 rank.

What about the “SEQUEST ranking (relative abundance in the WGA displacement fraction)” value [3] of the same binder?
The value was 6 to 10 rank.

What about the “SEQUEST ranking (relative abundance in the WGA displacement fraction)” value [4] of the same binder?
Its value is 16 to 20 rank.
